Measurements: the supplement of paper PMC9170038

Tested on: K4 kissing-loop RNA reporter
Assay: apparent KD of K4 kissing-loop reporter; higher = weaker reporter binding
Conditions: Eterna round: R107; input ligand: none
Procedure: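 RNA-MaP round R107: designed RNA switches with theophylline, tryptophan, arginine or FMN aptamers are transcribed on-chip within common flanks. They are titrated with a labelled K4 kissing-loop RNA reporter in RNA-MaP buffer (100 mM Tris pH 7.5, 80 mM KCl, 4 mM MgCl2), without ligand or with the indicated ligand. Median apparent KD per design.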
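Note: bound reporter read as fluorescence of individual clusters on recovered sequencing chips by microscopy, with normalized cluster intensities fitted with a binding model.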

| Sequence | apparent KD of K4 kissing-loop reporter |
| --- | --- |
| ACGUCUCGUUAAAUCGUGGUUUCGAUCGAUACCAGUAGCGAGAGUUACCCUUGGCAGCGAAAUGAGUGAUGUUCAUGAAAGAAGA [KL-XTheoA9] | 69.4 nM |
| GUAUCGCUAGGAGGAUAUUCCGUUUUUCAUAGCAAUGGCUAUGCGGAGUGAUGUUCCGAUUUACCGGAAGAAGGCCUAGUGAUAC [FMN B 24] | 128 nM |
| GGGCGGCAGACGGCCGCCACUCAUAGCAGCCAGUGAGUGAUGUUCGUGGCGGAGUGAUGUUCCUAGAGGACCGGGUUUGUUGUUC [Same State Tryptophan B GF 19] | 464 nM |
| AAGCAGUCACUCUAAGCCAUCGAAGAUGGUCGAGGACCGGUACGGCCGCCACUCGGAGUGAUGUUCCGAAGACUGCAAAAUAAAA | 468 nM |
| GUUUUAUAGGAGGAUACCAGUACAAAUAAAGUGCAUUAAUAGUAGAGUGAUGUUCUAAAGUACCCUUGGCAGCUUAGUUUAAGUU [#26 K4 Theophylline B Exclusion] | 185 nM |
| ACCCGUAGGAUACGGAGGUGUAAAUGGGUAUAGGAUAUCUAGAAAUAGAGAAGGAUACCAGUGAUGUUGGUUCCGUAUAUCUUAA | 105 nM |
| GGAUAGGACAGAGGAUAUCCUGAGUCUACAAAGUAGGCUCAUAAAGGAUGAAUCCUAGUGAUGUUAGGAGAAGGCUGUCCUAUCG [FmnBX 16 - #SwitchBubble #StaticStem #Palindromic] | 76.3 nM |
| UCAUGAGAGACGGCCGCCACUGAAGCAGCUCUGUAAGAGCUGCAACAGUAGAGUGAUGUUCUGCGCAGGACCGGGUCGUCAUGAA [KL-SSTryp-B9] | 398 nM |
| UAAGUGAUUCACAAGCUAGAGUUACUCGAAGGAGCGACGAAUUCGUCAGGUAGGUCGCGAGUGAUGUUCGCAUGCUCUAGCAAAU [AK1 Exc Arginine A] | 704 nM |
| UUUAAAUAUAGUGAUGUUAUAUAACAAUGACGAGGACCGGUACGGCCGCCACUCGAGAGAGAUAAUGGUCUAUAGAAUCUAUAGC [AstrosSSTryA#4] | 803 nM |
| GCGUCUUGGUCGGCCGCCACUGAGCCUAGUCACACUCUUGAGUGAUGUUGAAGAUGGUGGACUUGCAGGACCGGGACCACGGACG [theeternabot_sameState_KL_Trp_B_41] | 590 nM |
| UUGGGCAACCGAGAUACCAGUCAAAUCGCUCUGGAGUGAUGUUCCGGAACAUGCGGAGAAGACCCUUGGCAGCUCAAGACGGACA [Exclusion Theophylline B GF 1] | 107 nM |
| AGACUACCACACUGUCAAUAGACAGUGUACUAGGAUAUGCUGAUAAGCAGAAGGAGUGAUGUUCCCAGGUAGUCAAUAAAAUAAU [FmnAX 13 U28+C66] | 243 nM |
| AACUAUUAAUGAAUUACAUUUUAUUUUUCUCGAGGACCGGUACGGCCGCCACUCGUACUAUAGUGAUGUUAUAGAUAAGUCCUAA [JR_ExcTryptoA_Sub021] | 134 nM |
| UGUAUGUGAUUUGAUACCAGACCAGGUGGAGGAAUCUGAGUGAUGUUCAGGUAGGUUCUGGUCCCUUGGCAGCAAAUCGCAUACU [KL-SSTheoB19] | 168 nM |
| UGACUGGACUGAAGGAGCGCGCGAGACAAAGUCUCGAACUUCUAGUGAUGUUAGAAAAUAACGCAGGUAGGUCGCAGUCUAGUCU | 152 nM |

Same assay, conditions: Eterna round: R107; input ligand: theophylline 20 uM

| Sequence | apparent KD of K4 kissing-loop reporter |
| --- | --- |
| GCCGUAGAUGGAAGGAGCGUGCGUGAAGUGAUGUUUCACGAAGAGUUUUCCACCUUAUAUGCACAGGUAGGUCGCCAUCUACGGC | 105 nM |
| UGAUACCAGACGGCCGCCACUCCCGUAAGUCAAAGACUUACGAAGAAGGUUUUUUAGUGAUGUUGGAGGACCGGGUCUGGUAUCU [FiskerMod 19 - Jieux - Exclusion - Tryptophan B] | 302 nM |
| GUAGGCUACCGAGGAUAUAGUCCAACGGAGUGAUGUUCCGUCUUUCUUCAUCAUUAACGUUGUGAUCUAGAAGGCGGUAGCCUAC | 529 nM |
| UGUCAUUGGUCGGCCGCCACUCCAUAAUGAGUGAUGUUCUAAAAGACGGAUCGAAAGAUCUGUCGGAGGACCGGGACCGAUGACU [FiskerMod 5 - Jieux - Same State - Tryptophan B] | 799 nM |
| UGAUACCAGACUGAUACCAGCCAGUGAUGUUGGCUAAGCCGAAGAGGUGUCAUAGACACCGGCCCUUGGCAGCAGUCUGGUAUCU [#07 K4 Theophylline B Exclusion] | 108 nM |
| AUUAAUUUCAGAGGAUAUCGUGAUUUUGUUUAAUUUAUUCAUUUGUGCAGUGAUGUUGCUAAUAUUCGAGAAGGCUGAUUUAUAA [whbob_Ex_FMNB__2th225] | 132 nM |
| UGAUAGGACAGAAGGAGCGGUAGUGAUGUUACCAAAAGAAUAAGGUGUCAAAAGACACCCUACCAGGUAGGUCGCUGUCCUAUCU | 220 nM |
| GGAUAGGACAGAGGAUAUCUCUAAAGAGGCAAGAAAACUUGUCUCAGAGAUGACUCAGUGAUGUUGAGAGAAGGCUGUCCUAUCG [FmnBX 7 - #SwitchBubble #StaticStem] | 168 nM |
| ACAGGAUCGAAAGAUCCUGAGCAGUCUAACCGAGGACCGGUACGGCCGCCACUCGGAGUGAUGUUCCGAGGACUGCAAAAUAAAA [#SwitchBubble 2 #CoaxialStacking] | 329 nM |
| CAUAGGAAACUAUGUAUCUCUCUUACUGAAGGAGCGCGUGAAAACGCAGGUAGGUCGCAGAAUUUAAUAGAGAGUGAUGUUCUCU [Ex Arginine A K4 7] | 244 nM |
| GUAUCGCUAGGAGGAUAUUUCGUUUUUCAUAGCAAUGGCUAUGCGGAGUGAUGUUCCGAUUUACCGAAAGAAGGCCUAGUGAUAC [FMN B 25] | 103 nM |
| AAGGUAAGUGCAUACAAAGUGAUGUUUUGUCGAGGACCGGUACGGCCGCCACUCGCCCAGUUAAGUGACCGACGUCAACGAAUAA [theeternabot_exclusion_KL_Trp_A_21] | 502 nM |
| GCCAGUGAUGUUGGCGAACCAACGCAUGCAGAGGAUAUUCGUUCGGGAAGAAGGCUGCAGCGUUCUCUCCCGCAGUGAUGUUGCG [Same State FMN A GF 25] | 153 nM |
| CAAGGGCAAGUCGAUACCAGAGACACAUACCCGCAGUGAUGUUGCAGGAAACAGUUACUUCUCCCUUGGCAGCGAAUGCGACUUC [theeternabot_sameState_KL_Theo_B_45] | 309 nM |
| AGCGAUGUUUUCUCUAAGAGUGAUGUUUUUCGAGGACCGGUACGGCCGCCACUCGAAUAAAGUGUGUGGUAGUGAGCUGUUGACA [#17 K4 Tryptophan A Exclusion] | 648 nM |
| AUAGGAGUGAUGUUCCUUAGUUUCUCCGAUACCAGUAUGGAAACAUACCCUUGGCAGCGGGAAACCGCAGAUUAGGAAACUAGUC [Theophylline A K4 6] | 210 nM |
| ACGUCUCGUUAAAUCGUGGUUUCGAUCGAUACCAGUAGCGAGAGUUACCCUUGGCAGCGAAAUGAGUGAUGUUCAUGAAAGAAGA [KL-XTheoA9] | 130 nM |
| GUAUCGCUAGGAGGAUAUUCCGUUUUUCAUAGCAAUGGCUAUGCGGAGUGAUGUUCCGAUUUACCGGAAGAAGGCCUAGUGAUAC [FMN B 24] | 148 nM |
| GGGCGGCAGACGGCCGCCACUCAUAGCAGCCAGUGAGUGAUGUUCGUGGCGGAGUGAUGUUCCUAGAGGACCGGGUUUGUUGUUC [Same State Tryptophan B GF 19] | 471 nM |
| AAGCAGUCACUCUAAGCCAUCGAAGAUGGUCGAGGACCGGUACGGCCGCCACUCGGAGUGAUGUUCCGAAGACUGCAAAAUAAAA | 459 nM |
| GUUUUAUAGGAGGAUACCAGUACAAAUAAAGUGCAUUAAUAGUAGAGUGAUGUUCUAAAGUACCCUUGGCAGCUUAGUUUAAGUU [#26 K4 Theophylline B Exclusion] | 357 nM |
| ACCCGUAGGAUACGGAGGUGUAAAUGGGUAUAGGAUAUCUAGAAAUAGAGAAGGAUACCAGUGAUGUUGGUUCCGUAUAUCUUAA | 90 nM |
| GGAUAGGACAGAGGAUAUCCUGAGUCUACAAAGUAGGCUCAUAAAGGAUGAAUCCUAGUGAUGUUAGGAGAAGGCUGUCCUAUCG [FmnBX 16 - #SwitchBubble #StaticStem #Palindromic] | 79.5 nM |
| UCAUGAGAGACGGCCGCCACUGAAGCAGCUCUGUAAGAGCUGCAACAGUAGAGUGAUGUUCUGCGCAGGACCGGGUCGUCAUGAA [KL-SSTryp-B9] | 352 nM |
